Results as given in patent US20120058906A1 (published 2012).

Key:
[1] = target: T1, rHuman Erythropoietin R/Fc Chimera, CF (R&D Systems Cat#963-ER) (human, UniProt P19235 25-250); assay: ECL (MSD Multi-Spot) binding assay, antigen spotted on plate; Fab 17 nM; blank spot 143
T1 construct: Bought Fc chimera; also called EPO R/Fc; Epo R; Fc part of the bought chimera not given
T1 sequence: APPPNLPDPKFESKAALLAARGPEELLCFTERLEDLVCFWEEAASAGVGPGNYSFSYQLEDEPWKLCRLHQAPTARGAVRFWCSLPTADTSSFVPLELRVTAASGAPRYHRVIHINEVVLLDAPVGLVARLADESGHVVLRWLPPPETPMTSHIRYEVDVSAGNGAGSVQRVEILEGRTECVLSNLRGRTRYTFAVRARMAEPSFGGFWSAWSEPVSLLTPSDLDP

[2] = target: T2, Recombinant Human DLL4 (R&D Systems Cat#1506-D4/CF) (human, UniProt Q9NR61 27-524); assay: as above
T2 construct: Bought recombinant protein; also called delta-like protein 4; rHuman DLL4

[3] = target: T3, rHuman ErbB2/Fc Chimera, CF (R&D Systems Cat#1129-ER) (human, UniProt P04626 23-652); assay: as above
T3 construct: Bought Fc chimera; also called HER2/neu; human epidermal growth factor 2 receptor; Fc part of the bought chimera not given

[4] = target: T4, rHuman EGF R/Fc Chimera, CF (R&D Systems Cat#344-ER) (human, UniProt P00533 25-645); assay: as above
T4 construct: Bought Fc chimera; also called epidermal growth factor receptor; Fc part of the bought chimera not given

[5] = target: T5, rHuman Notch-1/Fc Chimera, CF (R&D Systems Cat#3647-TK) (human, UniProt P46531 19-526); assay: as above
T5 construct: Bought Fc chimera; Fc part of the bought chimera not given

[6] = target: T6, rHuman CD44/Fc Chimera, CF (R&D Systems Cat#3660-CD) (human, UniProt P16070 21-220); assay: as above
T6 construct: Bought Fc chimera; Fc part of the bought chimera not given

[7] = target: T7, rHuman IGF-1 sR (IGF-1 sR), CF (R&D Systems Cat#391-GR) (human, UniProt P08069 31-932); assay: as above
T7 construct: Bought soluble receptor; also called insulin-like growth factor-1 soluble receptor; IGF-R1

[8] = target: T8, rHuman IGF-1 sR (insulin-like growth factor-1 soluble receptor), CF (R&D Systems Cat#391-GR) (human, UniProt P08069 31-932); assay: ECL (MSD multi-spot), antigen on plate, Fab 2 nM
T8 construct: Bought soluble receptor; also called IGF-R1

[9] = target: T9, Recombinant Human DLL4 (R&D Systems Cat#1506-D4/CF) (human, UniProt Q9NR61 27-524); assay: ECL (MSD multi-spot), antigen on plate, Fab 2 nM
T9 construct: Bought recombinant protein; also called delta-like protein 4

[10] = target: T10, rHuman ErbB2/Fc Chimera, CF (R&D Systems Cat#1129-ER) (human, UniProt P04626 23-652); assay: ECL (MSD multi-spot), antigen on plate, Fab 2 nM
T10 construct: Bought Fc chimera; also called HER2/neu; not shown: Fc of the bought chimera

[11] = target: T11, rHuman EGF R/Fc Chimera, CF (R&D Systems Cat#344-ER) (human, UniProt P00533 25-645); assay: ECL (MSD multi-spot), antigen on plate, Fab 2 nM
T11 construct: Bought Fc chimera; also called ErbB-1; not shown: Fc of the bought chimera

[12] = target: T12, rHuman HGF R/c-MET/Fc Chimera, CF (R&D Systems Cat#358-MT/CF) (human, UniProt P08581 25-932); assay: ECL (MSD multi-spot), antigen on plate, Fab 2 nM
T12 construct: Bought Fc chimera; also called HGF R/Fc; not shown: Fc of the bought chimera

[13] = target: T13, rHuman Notch-1/Fc Chimera, CF (R&D Systems Cat#3647-TK) (human, UniProt P46531 19-526); assay: ECL (MSD multi-spot), antigen on plate, Fab 2 nM
T13 construct: Bought Fc chimera; not shown: Fc of the bought chimera

[14] = target: T14, rHuman CD44/Fc Chimera, CF (R&D Systems Cat#3660-CD) (human, UniProt P16070 21-220); assay: ECL (MSD multi-spot), antigen on plate, Fab 2 nM
T14 construct: Bought Fc chimera; not shown: Fc of the bought chimera

[15] = target: T1, rHuman Erythropoietin R/Fc Chimera, CF …; assay: ECL (MSD Multi-Spot) binding assay, antigen spotted on plate; Fab 240 nM; blank spot 316
[16] = target: T2, Recombinant Human DLL4 (R&D Systems …); assay: as above
[17] = target: T5, rHuman Notch-1/Fc Chimera, CF (R&D …); assay: as above
[18] = target: T6, rHuman CD44/Fc Chimera, CF (R&D Systems …); assay: as above
[19] = target: T15, rHuman P-Cadherin/Fc Chimera, CF (R&D Systems Cat#861-PC) (human, UniProt P22223 108-654); assay: as above
T15 construct: Bought Fc chimera; also called CDH3; Fc part of the bought chimera not given
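Note: blank spot per well as comparator with Hit at signal to blank ratio of 4 or more.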

B1: Fab VH5-51_IGHD5-18*01>3_IGHJ4*01 & V3-4_IGLJ1*01 (Fab, V domains shown)
VH: EVQLVQSGAEVKKPGESLKISCKGSGYSFTSYWIGWVRQMPGKGLEWMGIIYPGDSDTRYSPSFQGQVTISADKSISTAYLQWSSLKASDTAMYYCARRGYSYGYDYFDYWGQGTLVTVSS
VL: QTVVTQEPSFSVSPGGTVTLTCGLSSGSVSTSYYPSWYQQTPGQAPRTLIYSTNTRSSGVPDRFSGSILGNKAALTITGAQADDESDYYCVLYMGSGISYVFGTGTKVTVL
notes: Tested as a Fab made in E. coli; also called IGHV5-51*03
[1]
  ECL signal: 620
[2]
  ECL signal: 7160
[3]
  ECL signal: 1030
[4]
  ECL signal: 805
[5]
  ECL signal: 558
[6]
  ECL signal: 518
[7]
  ECL signal: 872

B2: Fab VH1-46_IGHD6-6*01_IGHJ1*01_S102A_S103P_S104F & L6_IGKJ1*01_S31K (Fab, V domains shown)
VH: QVQLVQSGAEVKKPGASVKVSCKASGYTFTSYYMHWVRQAPGQGLEWMGIINPSGGSTSYAQKFQGRVTMTRDTSTSTVYMELSSLRSEDTAVYYCAREEYAPFSAEYFQHWGQGTLVTVSS
VL: EIVLTQSPATLSLSPGERATLSCRASQSVSKYLAWYQQKPGQAPRLLIYDASNRATGIPARFSGSGSGTDFTLTISSLEPEDFAVYYCQQRSNWPPWTFGQGTKVEIKR
notes: Fab
[8]
  ECL signal: 222 ECL signal
[9]
  ECL signal: 10500 ECL signal
[10]
  ECL signal: 337 ECL signal
[11]
  ECL signal: 197 ECL signal
[12]
  ECL signal: 183 ECL signal
[13]
  ECL signal: 202 ECL signal
[14]
  ECL signal: 146 ECL signal

B3: Fab VH6-1_IGHD3-3*01_IGHJ4*01 & V4-3_IGLJ4*01 (Fab, V domains shown)
VH: QVQLQQSGPGLVKPSQTLSLTCAISGDSVSSNSAAWNWIRQSPSRGLEWLGRTYYRSKWYNDYAVSVKSRITINPDTSKNQFSLQLNSVTPEDTAVYYCAREYYDFWSGYYTDYFDYWGQGTLVTVSS
VL: QPVLTQPTSLSASPGASARLTCTLRSGINLGSYRIFWYQQKPESPPRYLLSYYSDSSKHQGSGVPSRFSGSKDASSNAGILVISGLQSEDEADYYCMIWHSSASFVFGGGTQLIIL
notes: Tested as a Fab made in E. coli; also called IGHV6-1*01
[15]
  ECL signal: 478
[16]
  ECL signal: 1270
[17]
  ECL signal: 368
[18]
  ECL signal: 470
[19]
  ECL signal: 383
